Results on one molecule are retold here after article PMC6962038 (Science Advances, 2020).

The target in experiment [1] is wild-type human APJ (membrane preparation) (human, UniProt P35414). The experiment can be described thus: cell-based or functional assay.
Experiment [2] addresses APJ463 chimeric receptor reconstituted in nanodiscs (human, UniProt P35414, C325L | C326M). The experiment can be described thus: SPR. Background: SPR reads the build-up and loss of mass on a sensor chip optically.

B1: single-domain antibody (sdAb) antagonist JN241 (VHH)
VHH: QVQLVESGGGSVQSGGSLTLSCAASGSTYSSHCMGWFRQAPGKEREGVALMTRSRGTSYADSVKGRFTISQDNTKNILYLQMNSLKPEDTAMYYCAAVPRAGIESGAYCKWNMKDSGSWGQGTLVTVSS
As usually defined, the Kd is the free concentration of one partner at which half of the binding sites on the other are occupied at equilibrium, for simple one-to-one binding. Read a high Kd as a looser complex. On to B1, for which, in experiment [1], the “IC50 of antagonism of the action of Apelin 13 on human APJ, cAMP assay” value was found to be 5.9 nM. The molecule further yielded a Kd in experiment [2] of 0.083 nM.
